The values that follow come from US20240158448A1, “MULTIVALENT NANO-'SELF' PEPTIDES AND USES THEREOF” (THE TRUSTEES OF THE UNIVERSITY OF PENNSYLVANIA, priority 2021, published 2024).

The target of this assay is human CD47 expressed on cells (red blood cells, K562 cells, THP-1 macrophages) (human) (UniProt Q08722). Nature of the assay: cell-based or functional assay.

B1: mouse anti-human CD47 antibody B6H12 (BD Biosciences) (antibody, from another filing, V domains shown)
VH: EVQLVESGGDLVKPGGSLKLSCAASGFTFSGYGMSWVRQTPDKRLEWVATITSGGTYTYYPDSVKGRFTISRDNAKNTLYLQIDSLKSEDTAIYFCARSLAGNAMDYWGQGTSVTVSS
VL: DIVMTQSPATLSVTPGDRVSLSCRASQTISDYLHWYQQKSHESPRLLIKFASQSISGIPSRFSGSGSGSDFTLSINSVEPEDVGVYYCQNGHGFPRTFGGGTKLEIK
Molecule B1 had a % THP-1 macrophages phagocytosing opsonized RBCs of 30%.
